Measurements: paper PMC8102337
No end group written: not given here.

How the values were obtained:
[1] = molecular target: N-terminally biotinylated HSP27 IXI peptide 178…186 (F185H), unmodified (human); experiment: SPR
[2] = molecular target: HSP27 alpha crystallin domain (ACD) (human); experiment: ITC

| Molecule | Kd [1] [µM] | Kd [2] [µM] |
| --- | --- | --- |
| HSP27 alpha crystallin domain (ACD) (domain or fragment) | 3.14 | – |
| EITIPVTHE (not fully specified) [HSP27 IXI peptide 178…186 (F185H), unmodified, without biotin] | – | 14.3 |
